Measurements reported in the supplement of paper PMC11502859.

Test system: HEK293T
Test: median enrichment of reporter reads in eGFP-reduced (low/intermediate) vs eGFP-high sorted cells (eGFP-extension fusion abundance) (ratio); higher = stronger loss of eGFP-fusion protein abundance (more destabilising extension)
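Also: lentiviral eGFP-IRES-mCherry reporter pool sorted by FACS 96 h post-transduction, gated on mCherry-high cells, Illumina read counts normalized per million, median across four biological replicates.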

Substance	median enrichment
RLHRNCW [OR2Z1]	3.02
REEWGRLRSCGPRPRSLRGCLGDHLDLEAESAILPD [DHRS2]	2.36
QFLGLFEYSIPMGIYFLSCH [HHIP]	13.7
CEGYYPFYYGTMPCVKNNHPLAYSH [DPY19L2]	8.92
RILPNALSENAELPFLFASFIFNIHNVVCLKVGFEVCAAYSFHLSPRFPSL [RRAGA]	15.7
FLGTHSHAHCRSINSNPHFRPKIMRPHLVSTFPRPCSKPNPFLPSGSQNLLSPTATTVLPDFSHSNHSRPAMGNRPSPSVLVK [RNF39]	4.59
LEPAAPASHLCLERTSAACQF [ECHS1]	0.709
CGPDCSLHSAHSICSHPPSLTQPPLSGILPQMRSERQ [ABHD6]	0.625
QLDHDLVQ [TRAT1]	0.266
SACPQHLLPPSLGVWIPMELGSAGHNLFLASDLPAIIKWLQIGT [LRRC59]	7.87
QNRIEQNRIE [PCSK5]	0.813
SAASWPWGRGLGCGAVWVLSSSPLPRPSLSNPAWDLGFNAEAMSLSGPASGYSHPGTEKAADGDCLPQPQQHLGLQLLESYHP [LGALS9]	7.86
CASALEETTGSPICLEFLLLLLLVCFQISLCFLLCSRKVLQNHREKVHCYKGIPTHWRL [PAQR9]	25.9
YRHQVW [SMAD3]	1.22
RRPVPR [TBC1D24]	1.51
RGGMGFTDMVLIH [GABRG2]	7.24
MMM [Met03]	0.831
QQQYYRGLNNTTKSIWIA [NCAM2]	25
SPARRPSQRVTRPRGRTDSSDSPQ [EPS8L1]	0.338
YPVLEGTGGIIFNDLLN [NXPE3]	1.65
SAVKFF [INTS8]	0.917
WRGLQGSLLWVPT [RNF152]	6.67
QGPPNLIAGHSQPSESESRFLLSLPSSPLETQLLSQVRQWAGSCFISLSLSIPLCLVSLPLVSAWQPPPPTYHPSPITQVNVT [PGLYRP4]	3.73
SEVLLETKSPSPIAEGGGDPLL [ARID3C]	0.257
RGQAAPVLGEGG [DEPDC5]	3.76

Substance	median enrichment
CSSVYELPFHSAFRNYILAFIFNLPTYFK [ATM]	8.5
RPPAPNSIIYYGAAPPGWPDPWALGLWILVPCLENSPPLAPHCSL [CYTH2]	8.4
RTILELTRFVCL [KRTAP20-1]	7.89
SRRRLGLCSQGLWLMMIDAPFSHALSSHLASAGQNPSPDVCNLCLEYLGVVEEQIIPSKHQALGFLEQAESQ [USP39]	3.94
STL [PGRMC2]	0.374
YPPQGPAPPRPGE [WFIKKN1]	0.52
RGLLALTLQPTLAVWPSPGSFPAPLPLFPVLLNSPSWRVQALGMGGTRPHSFHRALRPDTADQPHSAQEAASGVGAQRGTAAS [BAP1]	2.63
LLLLLLL [Leu07]	12.7
CEA [NPSR1]	10.3
YSTVI [C5orf15]	0.763
LSSC [KRTAP13-1]	0.413
YKNQNGLR [ADGRB3]	0.651
LLQGSKLQR [OR7A5]	10.4
RSGTGRLLIEIHLLGGTGFP [MRNIP]	8.41
WLQPAKSILLFHFFHDGAV [CTSK]	8.37
TLTMPRPHPVQHSQSSHLHPRTVGAGRHFPLEHVLRSITLGPTARLSLPPGSCMRSPDQLDHHFAQPLNTMHQASISQFPLAF [SCARA5]	3.72
RSLRAGPSAAGSCLNTSLDMARTHRDTGQDQPCLWRQDTTIWPMAVTSCRVQSQTGNHHLRQDLPASFTFLISRALPPILCLG [SLC22A13]	6.14
LGRIMASFQNSFS [OR2AG1]	7.84
WEKQAKEKSVTVPL [KIDINS220]	0.839
RGIRLPGNSGTVALADHLQHPAS [SLC2A10]	0.279
LAQLPLSYSSATPQLPLSPAAARATARPGLSSARLTSARPAGLLKAVGRTPA [MED16]	5.35
LRRVLSNLFFFFLYLHLQPQLSHFSP [MTMR11]	11.6
DDD [Asp03]	0.645
YSASSNLVFSKKNIYYLFLACHFNSSRDFTAGIF [RBM48]	41.8
WRFPLPSSQPP [MEF2D]	2.36

Substance	median enrichment
QLFTLFFYIYLYIYIKIGS [CBX3]	10.2
YVI [UPRT]	1.22
YFNLCNLTNFHDK [NUP107]	9.37
YKLGLCFLLVTEDWVAP [SOAT1]	9.15
SPLL [PIK3C2G]	0.449
YNFFHLRNYCDL [CHD6]	19.1
ERSPNLQVQGRYIHI [MARK1]	1.47
LGHANNQSCSNFKPVTAHNRPGSELCEGP [CDON]	0.661
LFSSQLF [ADAM17]	5.62
LPGPGFAPAPASGPPGSRCGGCGPRAGARRRRRRREGARPAGRNRSDSRQEPGTEPGTEQQVRPGPPRLGADSDALGGSRKGG [NKX6-2]	6.82
CRL [ACADSB]	4.42
YSQLKECEILNY [MTREX]	1.31
WSTPAWYRHTQGLPCLHSPA [PDZD3]	5.04
RSNLYVLPKKPKTAFD [C2orf15]	1.27
REPKGDWALWQLLSHTVDHSSPSCSLSSSECGW [TRIM66]	12.8
SRPHTPALTQLLLGT [GRM2]	5.49
GTSLALLTHPRNTISGTRAAPRTRGYSRHNLIERAPAALTSTAFDTYASLVLLLSSESSCAHAFSRMGSPLAVAASVLALASS [KIAA1522]	6.48
GSRGRGGESPPRPPLPSPPGSRGSGLGRLPIPLLQAALIPHRN [FBXO46]	5.21
LLTLS [BBS5]	10.2
LIA [ACAT2]	1.03
SAHAARRQGGLRRGPHSTRVCFCAAVQTVATALTERDSRAFILKEMFFPRGLLKE [GATA6]	4.62
YVYLFLQEI [PI15]	4.25
WHLFPPCLPLPLFWGHPFPPWLSPLKVSPPLGAFLEPCVSEWSPHSIVPRVCPQTLHLALLGRN [SNRPA]	10.5
WGLRPHAPSHAVHPFSQVPNGPGSQDPGPSQNLCPPCP [SARDH]	9.03
CDPCKWDSPPVHEAWLLQYLLVEELYSKMKRKNKQTNKKKHKKRKNTFLYLTMFFEYVFFL [RBFOX2]	0.264

Substance	median enrichment
SKRGHMESGGHLDD [PTGR1]	0.345
LVLLVLLICRCHRTAVTRFLIVPAQPCPRTLGCMSHNMDPG [TREML4]	3.13
RASVGG [MDFI]	9.54
EFIFKRFSECAQNTWLK [TRMT10C]	5.59
WWWWW [Trp05]	7.38
YRMETQKT [USH2A]	0.809
EQPGTAFSFPAEYC [RBM34]	0.275
LVLRLRATPLPSACSFPGIFVSF [EPS15L1]	18
EKYHLPYAARDLQTFFLPFW [SPAG11A]	6.64
LAYLLVFVLKCDLRFNV [TMEM70]	9.39
SSFIGLNTVCFYQSGHWHCLLFYNHVDTSISKENLSTR [RARS]	8.65
GWVRISTTFLDTVK [HBS1L]	11.5
PLLNLDFCPNPLPVTRSISLSLLSNGAWSTEASEAIALLAEVKRTLSPHLRLPCVEPASVCPSFHCSQCQTWAAAPRRLRPNQ [SLC18A3]	5.19
QNILCTALVISDLD [MALSU1]	7.03
VSGIMRRPWGMN [Degron APPBP2]	10.2
YPVTPRDCLVQVVAAGGTHAAPRSEQTLPCRPAPAGPDGPLWRLDLLGQAALGLSAPSCLSRCDRARPKPGCTLLDWASLHCL [MLST8]	4.58
SVGTAQWRRGYSPG [HTR3A]	28
SGTRKEID [PCDHB16]	0.57
LVGWLLVFVSFLSCLLLKGNQK [MYCT1]	9.75
WGEKPQKGKLQTSWETCAKDFAD [CXCL14]	0.277
YSV [ILF3]	0.744
PGLTALRSARRARAETRVGCGELKEPIKSCSSTQNEPCSRHLPMLRDAWSVLGARPGAAACPTPPEEADPDRYLTTFFFFFFF [UQCC3]	5.28
QQQQQQQQ [Gln08]	0.342
LLTVFHKEDV [ATP2A2]	10.9
SWPPASASSYLLPGSPPRRPPYRERGFTR [OGG1]	6.11

Substance	median enrichment
RRVQRTCSSLGEEAPLKNSPPGTQLQPSGQAAGRRQRQREETLALTPSRVVIFGFAHHPGLPDGTLL [C12orf49]	11.7
YLTLPIS [OR5AS1]	15.4
EGGALCLCLPV [CTSE]	7.51
RLEPV [TMEM87B]	0.479
RHVIP [NPFF]	0.57
LAPASGLAIPLLSADYGVSTFGHNTYSPFTLYHSATNHRTDHLRLFLLALCVQDSLIHFCW [GIGYF2]	35.9
RGRTSALSDRTLRAMLPCHP [MRGPRX3]	6.81
YTPLFVVHYFD [KCNQ2]	7.27
SMALVALEWDPALTSPRANLGGAEGALGHRKQGKKGRSCGEMTLIFDCYPNLDL [NDRG2]	7.41
RAPAVIIQHDAA [PLXNA1]	5.99
YEQCIT [DCTN6]	2.67
SGPGIHVGGRGRGGRREGRGEIHTVDTLTSWPKSLPQDLPDLHGQASYGGVSISFFLFLFPGLRASWGPRFTNSPTPLKLWRR [AQP1]	5.75
REGSNGSRELDTVHPNTSPPPGHLEESSARIPRQSSPPAPAVPSCAVLLPHSAPGPCPFIPLKHPLKPLHHFHSQQKVIEHLL [HAUS5]	7
WGPAWHPVTPPQCLSWP [CSHL1]	7.99
WPFSWATLQSLPPFGR [ZNRD1]	6.12
ESPLFLPTLQGPHSPYPSVQCTREETLCL [IDH3B]	13.1
YDLEFC [PQLC2L]	0.999
SVWAGLFNMVFAVLPPWGPWSDNIVSLVRLSRCLIRTANGASPTPPRVRPPFHQRVSSQRPPASCPAAQEEKEGLNSIAIFFP [PDGFB]	7.44
QGPGLRREALSQRLPHPSPLAFNSVASCSPAAEPPRIRLHVTLKLTNFHGPH [FYN]	20.4
QCPN [LRRC3B]	0.337
CVTVLDFSKTSFNTE [GABRB3]	4.69
QCR [CCDC73]	0.362
